Results: patent US20240360228A1 (BIOLEGEND, published 2024)
Values belong to the binder of their own block, whether it stands above or below them.

Tests used:
[1] = molecular target: human chemokine (C-C motif) receptor 8 (CCR8) (human, UniProt P51685 1-355); experiment: cell-based or functional assay
human CCR8 [2] = molecular target: T1, human CCR8 (human, UniProt P51685 1-355); experiment: flow blocking, PBMC CCR8+CD4+; competitor PE-AB5
T1 construct: Native CCR8 on human PBMC (CCR8+ CD3+ or CCR8+ CD4+ lymphocytes); also called chemokine (C-C motif) receptor 8
T1 sequence (P51685 whole entry): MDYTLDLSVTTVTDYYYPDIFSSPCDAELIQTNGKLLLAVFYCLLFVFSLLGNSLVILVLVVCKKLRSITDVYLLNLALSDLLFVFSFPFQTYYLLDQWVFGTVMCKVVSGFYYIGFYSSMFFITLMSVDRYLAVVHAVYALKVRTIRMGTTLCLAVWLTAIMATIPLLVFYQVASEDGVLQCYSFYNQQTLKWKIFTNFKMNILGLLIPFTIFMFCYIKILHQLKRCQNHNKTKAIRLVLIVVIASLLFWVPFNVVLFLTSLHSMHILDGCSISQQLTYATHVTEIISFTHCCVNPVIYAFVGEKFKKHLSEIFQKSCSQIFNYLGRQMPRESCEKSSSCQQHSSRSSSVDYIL
In short: (§1)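 Competition by flow cytometry: 10 μg unlabeled antibody preblock, then 0.25 μg PE-competitor with T-cell marker for 15 min. MFI gated on CCR8+ CD4+ or CD3+ cells; 100 − percent of isotype MFI.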

human CCR8 [3] = molecular target: T1, human CCR8; experiment: flow blocking, PBMC CCR8+CD4+; competitor PE-AB1
In short: as §1

human CCR8 [4] = molecular target: T1, human CCR8; experiment: flow blocking, PBMC CCR8+CD3+; competitor PE-AB7
Protocol: (§2) For blocking studies, 100 μL of the cell suspension were incubated with 10 μg purified isotype control, AB1, AB2, AB3, AB4, AB5, AB8, AB9, AB10, AB11, AB12, AB13, AB14, AB15, and Commercial ABI antibodies, or isotype control, as blocking agents.
(§3) After incubation with the blocking agent, the cells were incubated with 0.25 μg of the indicated PE-conjugated antibody plus anti-human CD4 APC or anti-human CD3 for another 15 minutes in the dark and then washed 2 times with Cell Staining Buffer, and acquired in a FACSCanto II flow cytometer (BD Biosciences); the data was analyzed using FCS Express (De Novo Software); MFI correspond to the CCR8+ CD4+ lymphocytes or CCR8+ CD3+ lymphocytes.
(§4) Percentage original MFI was calculated by dividing the MFI of samples blocked with AB1, AB2, AB3, AB4, AB5, AB6, AB7, AB8, AB9, AB10, AB11, AB12, AB13, AB14, AB15, and Commercial ABI antibodies, by the MFI of samples blocked with the corresponding isotype control. This value was subtracted from 100 to get a blocking percentage. The formula is shown below: […]

human CCR8 [5] = molecular target: T1, human CCR8; experiment: flow blocking, PBMC CCR8+CD4+; competitor PE-AB10
In short: as §1

human CCR8 [6] = molecular target: T1, human CCR8; experiment: flow blocking, PBMC CCR8+CD4+; competitor PE-AB2
In short: as §1

human CCR8 [7] = molecular target: T1, human CCR8; experiment: flow blocking, PBMC CCR8+CD3+; competitor PE-AB12
Protocol: as §2, §3, §4

human CCR8 [8] = molecular target: T1, human CCR8; experiment: flow blocking, PBMC CCR8+CD3+; competitor PE-AB14
Protocol: as §2, §3, §4

human CCR8 [9] = molecular target: T1, human CCR8; experiment: flow blocking, PBMC CCR8+CD3+; competitor PE-AB6
Protocol: as §2, §3, §4

human CCR8 [10] = molecular target: T1, human CCR8; experiment: flow blocking, PBMC CCR8+CD4+; competitor PE-AB15
In short: as §1

human CCR8 [11] = molecular target: T1, human CCR8; experiment: flow blocking, PBMC CCR8+CD4+; competitor PE-433H
In short: (§5)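 Human PBMC (100 μL suspension) were pre-blocked with 10 μg of each unlabelled anti-CCR8 antibody or isotype control. Cells were then stained 15 min in the dark with 0.25 μg of the PE-conjugated competitor antibody plus anti-CD4 or anti-CD3. Read-out by flow cytometry as MFI on CCR8+CD4+ or CCR8+CD3+ lymphocytes.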

human CCR8 [12] = molecular target: T1, human CCR8; experiment: flow blocking, PBMC CCR8+CD3+; competitor PE-AB11
Protocol: as §2, §3, §4

human CCR8 [13] = molecular target: T1, human CCR8; experiment: flow blocking, PBMC CCR8+CD3+; competitor PE-AB5
Protocol: as §2, §3, §4

human CCR8 [14] = molecular target: T1, human CCR8; experiment: flow blocking, PBMC CCR8+CD4+; competitor PE-AB6
human CCR8 [15] = molecular target: T1, human CCR8; experiment: flow blocking, PBMC CCR8+CD3+; competitor PE-433H
Protocol: as §2, §3, §4

human CCR8 [16] = molecular target: T1, human CCR8; experiment: flow blocking, PBMC CCR8+CD3+; competitor PE-L263G8
Protocol: as §2, §3, §4

human CCR8 [17] = molecular target: T1, human CCR8; experiment: flow blocking, PBMC CCR8+CD4+; competitor PE-AB3
In short: as §1

human CCR8 [18] = molecular target: T1, human CCR8; experiment: flow blocking, PBMC CCR8+CD4+; competitor PE-AB13
In short: as §5

human CCR8 [19] = molecular target: T1, human CCR8; experiment: flow blocking, PBMC CCR8+CD4+; competitor PE-AB14
In short: as §5

human CCR8 [20] = molecular target: T1, human CCR8; experiment: flow blocking, PBMC CCR8+CD4+; competitor PE-AB11
In short: as §1

human CCR8 [21] = molecular target: T1, human CCR8; experiment: flow blocking, PBMC CCR8+CD4+; competitor PE-AB12
In short: as §1

human CCR8 [22] = molecular target: T1, human CCR8; experiment: flow blocking, PBMC CCR8+CD3+; competitor PE-AB8
Protocol: as §2, §3, §4

human CCR8 [23] = molecular target: T1, human CCR8; experiment: flow blocking, PBMC CCR8+CD3+; competitor PE-AB10
Protocol: as §2, §3, §4

human CCR8 [24] = molecular target: T1, human CCR8; experiment: flow blocking, PBMC CCR8+CD4+; competitor PE-AB4
In short: as §1

human CCR8 [25] = molecular target: T1, human CCR8; experiment: flow blocking, PBMC CCR8+CD3+; competitor PE-AB13
Protocol: as §2, §3, §4

human CCR8 [26] = molecular target: T1, human CCR8; experiment: flow blocking, PBMC CCR8+CD3+; competitor PE-AB15
Protocol: as §2, §3, §4

human chemokine (C-C motif) receptor 8 (CCR8), sequence (P51685 whole entry): as above

% hCCR8-Ba/F3 - THP-1 complexes [1]: 2.2%
B1: AB7 (antibody, V domains shown)
VH: AVQLVESGGGLVQPKESLKISCAASGFTFSYAAMYWVRQTPGKGLEWVARIRTKPNNYATYYADSVKGRFTISRDDSKSMVYLQMDNLKSEDTAMYYCNIMGITRGYYFDYWGQGVMVTVSS
VL: DIQMTQSPSFLSASVGDRVTINCKASQNINRYLNWYQQQLGEAPKLLIYNANNLQTGIPSRFSGSRSGTDFTLTISSLQPEDVATYFCLQHNSWPWTFGGGTKLELK

% hCCR8-Ba/F3 - THP-1 complexes [1]: 1.88%
B2: AB6 (antibody, V domains shown)
VH: QVQLKESGPGLVQPSQTLSLTCTVSGFSLTSYHVSWVRQPPGKGLEWMGVIWTGGSTTYNSLLKSRLSISRDISKSQVFLKMNSLQTEDTATYYCARGGTVVKGGFAYWGQGTLVTVSS
VL: DIQMTQSPASLSASLEEIVTITCQASQDIGNRLSWYQQKPGKSPQLLIYGATSLADGVPSRFSGSRSGTQYSLKISRLQVEDIGIYYCLQAYSTPLTFGSGTKLEIK

% Blocking (human CCR8 [2]): -7.92% | % Positive cells (human CCR8 [2]): 2.18% | % Blocking (human CCR8 [3]): -36.8% | % Positive cells (human CCR8 [3]): 2.12% | % Blocking (human CCR8 [4]): 46.1% | MFI (human CCR8 [4]): 630 | % Blocking (human CCR8 [5]): 96% | % Positive cells (human CCR8 [5]): 0.06% | % Blocking (human CCR8 [6]): -33.5% | % Positive cells (human CCR8 [6]): 2.19% | % Blocking (human CCR8 [7]): 21.8% | MFI (human CCR8 [7]): 800 | % Blocking (human CCR8 [8]): 30.8% | MFI (human CCR8 [8]): 598 | % Blocking (human CCR8 [9]): -17.2% | MFI (human CCR8 [9]): 1080 | % Blocking (human CCR8 [10]): -34.9% | % Positive cells (human CCR8 [10]): 1.74% | % Blocking (human CCR8 [11]): 34.7% | % Positive cells (human CCR8 [11]): 1.15% | % Blocking (human CCR8 [12]): 5.33% | MFI (human CCR8 [12]): 878 | % Blocking (human CCR8 [13]): -14.7% | MFI (human CCR8 [13]): 1130 | % Blocking (human CCR8 [14]): 1.49% | % Positive cells (human CCR8 [14]): 1.99% | % Blocking (human CCR8 [15]): 8.18% | MFI (human CCR8 [15]): 814 | % Blocking (human CCR8 [16]): 11.8% | MFI (human CCR8 [16]): 594 | % Blocking (human CCR8 [17]): -19.3% | % Positive cells (human CCR8 [17]): 2.04% | % Blocking (human CCR8 [18]): 95.5% | % Positive cells (human CCR8 [18]): 0.09% | % Blocking (human CCR8 [19]): 99.2% | % Positive cells (human CCR8 [19]): 0.01% | % Blocking (human CCR8 [20]): 98% | % Positive cells (human CCR8 [20]): 0.04% | % Blocking (human CCR8 [21]): 99.4% | % Positive cells (human CCR8 [21]): 0.01% | % Blocking (human CCR8 [22]): 44.1% | MFI (human CCR8 [22]): 664 | % Blocking (human CCR8 [23]): 8.91% | MFI (human CCR8 [23]): 726 | % Blocking (human CCR8 [24]): -18.5% | % Positive cells (human CCR8 [24]): 2.11% | % Blocking (human CCR8 [25]): 24.6% | MFI (human CCR8 [25]): 668 | % Blocking (human CCR8 [26]): 30% | MFI (human CCR8 [26]): 601
B3: AB13 (antibody, V domains shown)
VH: EVQLVETGGGLVQPKGSLKLSCAASGFTFNAYAMNWVRQAPGKGLEWVARIRTKSNNYATYYADSVKDRFTISRDDSQTMLYLQMNNLKTEDTAMYYCVRDRATVTTGRAMDYWGQGTSVTVSS
VL: DIVMTQAAPSLPVTPGESVSISCRSSKSLLHSNGNTYLYWFLQRAGQSPQLLIYRMSNLASGVPDRFSGSGSGTAFTLRISRVEAEDVGVYYCMQHLEYPFTFGSGTKLEIK
notes: Hybridoma monoclonal; also called antibody 13; clone 13
